From PMC11843475, “Taming interleukin‐12: Engineering of bispecific antibody‐based IL‐12 mimetics with biased agonism capacities” (Protein Science : A Publication of the Protein Society, 2025)

Biological target: T1, recombinant human (rh) His-tagged IL-12Rβ1 ECD (human, UniProt P42701 24-545)
T1 construct: Interleukin-12 receptor subunit beta-1, human, extracellular domain; Loaded on anti-Penta His (HIS1K) biosensors through its His tag; also called (rh) IL-12Rβ1; IL-12 receptor subunit β1; source: bought: Acro Biosystems (ILB-H52H9)
Assay: BLI; epitope binning / competition: 5 μg/mL His-tagged (rh) IL-12Rβ1 ECD loaded on HIS1K biosensors in PBS; first association 200 nM for 300 s, then second association 200 nM for 300 s with a 100 nM spike of the first molecule; kinetics buffer (PBS + 0.1% Tween-20, 1% BSA); 25°C, 1000 rpm; competition with rh IL-12 analysed in the same combinatorial manner
Conditions: both partners purified

binding result: binds
B1: recombinant human (rh) IL-12 (complex)
chain 1: RNLPVATPDPGMFPCLHHSQNLLRAVSNMLQKARQTLEFYPCTSEEIDHEDITKDKTSTVEACLPLELTKNESCLNSRETSFITNGSCLASRKTSFMMALCLSSIYEDLKMYQVEFKTMNAKLLMDPKRQIFLDQNMLAVIDELMQALNFNSETVPQKSSLEEPDFYKTKIKLCILLHAFRIRAVTIDRVMSYLNAS
chain 2: IWELKKDVYVVELDWYPDAPGEMVVLTCDTPEEDGITWTLDQSSEVLGSGKTLTIQVKEFGDAGQYTCHKGGEVLSHSLLLLHKKEDGIWSTDILKDQKEPKNKTFLRCEAKNYSGRFTCWWLTTISTDLTFSVKSSRGSSDPQGVTCGAATLSAERVRGDNKEYEYSVECQEDSACPAAEESLPIEVMVDAVHKLKYENYTSSFFIRDIIKPDPPKNLQLKPLKNSRQVEVSWEYPDTWSTPHSYFSLTFCVQVQGKSKREKKDRVFTDKTSATVICRKNASISVRAQDRYYSSSWSEWASVPCS
notes: Interleukin-12 p35 alpha-subunit (IL12A), human; Interleukin-12 p40 beta-subunit (IL12B), human; Heterodimeric cytokine of p35 and p40; also called wild-type IL-12; interleukin-12; source: bought: Acro Biosystems
